Results on twelve molecules are retold here after patent US20190352381A1 (Alexion, published 2019).

Test [1] deals with T1, human properdin (human, UniProt P27918 28-469). Description: cell-based or functional assay.
For test [2], the target named is T1, human properdin. As to the kind of experiment: sensorgram kinetics (RU), biotinylated properdin capture method.
In test [3] the target is T1, human properdin. As to the kind of experiment: cell-based or functional assay. The source holds these as a separate data set.
The target of test [4] is T2, cynomolgus properdin (cynomolgus, UniProt A0A2K5V0Z6 29-470).
T2 construct: properdin of cynomolgus serum in the hemolysis assays; also called biotinylated cynomolgus properdin
Description: binding kinetics at pH 7.4.

The target of test [5] is T1, human properdin. Description: binding kinetics at pH 7.4.
For test [6], the target named is T1, human properdin. As to the kind of experiment: binding kinetics, biotinylated properdin capture method.
Test [7] has as its target T2, cynomolgus properdin. The description is as above.
The target of test [8] is T1, human properdin. The test is described as above. The source holds these as a separate data set.
For test [9], the target named is T1, human properdin. As to the kind of experiment: Octet bio-layer interferometry; streptavidin biosensors loaded with biotinylated human properdin, construct at 10 ug/mL. On the procedure:
All washes, dilutions, and measurements were performed in Kinetic buffer (FortéBio cat 185032) with the plate shaking at 1000 rpm. Streptavidin Biosensors (Forté Bio Cat:18-5019 lot: 1405301) were equilibrated in Kinetic buffer for 10 min and then loaded with 50 nm of biotinylated human properdin. For the association phase, 10 μg/mL of selected anti-properdin antibody or kinetics buffer blank was added to the biosensors preloaded with biotinylated human properdin, respectively.

In test [10] the target is T1, human properdin. Description: binding kinetics at pH 6.0.
Test [11] concerns the target T3, Human Albumin (human, UniProt P02768 25-609). As to the kind of experiment: binding kinetics at pH 6.0.
Test [12] deals with T4, Cynomolgus Albumin (cynomolgus, UniProt A2V9Z4 25-608). Description: binding kinetics at pH 6.0.
Test [13] has as its target T3, Human Albumin. As to the kind of experiment: binding kinetics at pH 7.4.
Test [14] concerns the target T4, Cynomolgus Albumin. Description: binding kinetics at pH 7.4.
The target in test [15] is T1, human properdin. As to the kind of experiment: cell-based or functional assay. This is another data set of the same source.

Substitutions are numbered along the chain they refer to. Names and notes keep the numbering of the source. Like-named read-outs stand apart in the source and are kept apart here.

B1: TPP-2223 (Anti-properdin control antibody without C1q binding domain) (antibody, human IgG1, kappa, V domains shown)
VH: QVQLVQSGAEVKKPGASVKVSCKASGYIFTNYPIHWVRQAPGQGLEWMGFIDPGGGYDEPDERFRDRVTMTRDTSTSTVYMELSSLRSEDTAVYYCARRGGGYYLDYWGQGTLVTVSS
VL: DIQMTQSPSSLSASVGDRVTITCRASQDISFFLNWYQQKPGKAPKLLIYYTSRYHSGVPSRFSGSGSGTDFTLTISSLQPEDFATYYCQHGNTLPWTFGQGTKVEIKR
Consider B1, for which the “IC50 (read off the curve)” value in the test with human properdin [1] was about 9 nM.

B2: AB007 (VHH)
VHH: QVQLVESGGGLVQAGGSLRLSCAASGRISSIIHMAWYRQAPGKQRELVAEISRVGTTVYADSVKGRFTISRDDAKNTVTLQMNSLKPEDTAVYYCNALQYEKHGGADYWGQGTQVTVSG
notes: Llama VHH, cloned and expressed with a 6x histidine tag; also called anti-properdin VHH AB007
Take B2: in the test with human properdin [2], the Kd is 0.344 nM, the koff worked out at 0.000359 s⁻¹ and the kon is 1.04e+06 M⁻¹ s⁻¹.

B3: TPP-2221 (LVP058_hG2-G4, VHH on silent human Fc) (Fc fusion)
chain: LEVQLVESGGGLVQAGGSLRLSCAASGRISSIIHMAWYRQAPGKQRELVAEISRVGTTVYADSVKGRFTISRDDAKNTVTLQMNSLKPEDTAVYYCNALQYEKHGGADYWGQGTQVTVSSRKCCVECPPCPAPPVAGPSVFLFPPKPKDTLMISRTPEVTCVVVDVSQEDPEVQFNWYVDGVEVHNAKTKPREEQFNSTYRVVSVLTVLHQDWLNGKEYKCKVSNKGLPSSIEKTISKAKGQPREPQVYTLPPSQEEMTKNQVSLTCLVKGFYPSDIAVEWESNGQPENNYKTTPPVLDSDGSFFLYSRLTVDKSRWQEGNVFSCSVMHEALHNHYTQKSLSLSLGK
B3: the “IC50 (read off the curve)” value with human properdin [1] is about 10 nM.

B4: TPP-2951 (Humanized anti-Albumin LVP058 (G4S)3 Linker (7-backmutations)) (bispecific antibody)
chain: EVQLVESGGGLVKPGGSLRLSCAASGRPVSNYAAAWFRQAPGKEREFVSAINWQKTATYADSVKGRFTISRDNAKNSLYLQMNSLRAEDTAVYYCAAVFRVVAPKTQYDYDYWGQGTLVTVSSGGGGSGGGGSGGGGSEVQLLESGGGLVQPGGSLRLSCAASGRISSIIHMAWFRQAPGKERELVSEISRVGTTVYADSVKGRFTISRDNSKNTLYLQMNSLKPEDTAVYYCNALQYEKHGGADYWGQGTLVTVSS
notes: Single chain: anti-albumin VHH, (G4S)3 linker, humanized LVP058 with 7 back mutations
Take B4: in the test with human properdin [3], the “IC50 (read off the curve)” value was about 30 nM. Further, the Kd turned out to be 2.33 nM with cynomolgus properdin [4]; 0.301 nM with human properdin [5]; 0.301 nM with human properdin [6]; 2.33 nM in the test with cynomolgus properdin [7]; 0.322 nM with human properdin [8]. The figures for the koff in the test with human properdin [6], with cynomolgus properdin [7] and with human properdin [8] were 0.000567 s⁻¹, 0.00426 s⁻¹ and 0.000574 s⁻¹, respectively. Further, the kon with human properdin [6] was found to be 1.88e+06 M⁻¹ s⁻¹; with cynomolgus properdin [7], 1.82e+06 M⁻¹ s⁻¹; in the test with human properdin [8] it was 1.78e+06 M⁻¹ s⁻¹.

B5: TPP-3261 (Humanized anti-Albumin LVP058 (G4S)3 Linker (3-backmutations)) (bispecific antibody)
chain: B4 chain with L143V, F175V, E182Q, K224R, P225A
notes: Single chain: anti-albumin VHH, (G4S)3 linker, humanized LVP058 with 3 back mutations
Regarding B5, the Kd is 3.08 nM in the test with cynomolgus properdin [4], 0.485 nM with human properdin [5], 3.08 nM with cynomolgus properdin [7] and 0.485 nM with human properdin [8]. Also, the off-rate constant (koff) in the test with cynomolgus properdin [7] stood at 0.00587 s⁻¹; with human properdin [8], 0.000834 s⁻¹. The kon in the test with cynomolgus properdin [7] came out at 1.91e+06 M⁻¹ s⁻¹; in the test with human properdin [8], 1.72e+06 M⁻¹ s⁻¹.

B6: TPP-3071 (anti-Albumin LVP058 (G4D)2 (G4) Linker) (bispecific antibody)
chain: EVQLVESGGGLVKPGGSLRLSCAASGRPVSNYAAAWFRQAPGKEREFVSAINWQKTATYADSVKGRFTISRDNAKNSLYLQMNSLRAEDTAVYYCAAVFRVVAPKTQYDYDYWGQGTLVTVSSGGGGDGGGGDGGGGEVQLVESGGGLVQAGGSLRLSCAASGRISSIIHMAWYRQAPGKQRELVAEISRVGTTVYADSVKGRFTISRDDAKNTVTLQMNSLKPEDTAVYYCNALQYEKHGGADYWGQGTQVTVSS
notes: Single chain: anti-albumin VHH, (G4D)2 G4 linker, non-humanized LVP058
B6: in the test with human properdin [9], the binding result is on record as “binds”.

B7: TPP-3072 (anti-Albumin LVP058 (G4E)2 (G4) Linker) (bispecific antibody)
chain: B6 chain with D128E, D133E
Consider B7, for which the “IC50 (read off the curve)” value with human properdin [3] is about 20 nM.

B8: TPP-2224 (LVP058 (G4S)3-anti-Alb-tandem VHH) (bispecific antibody)
chain: LEVQLVESGGGLVQAGGSLRLSCAASGRISSIIHMAWYRQAPGKQRELVAEISRVGTTVYADSVKGRFTISRDDAKNTVTLQMNSLKPEDTAVYYCNALQYEKHGGADYWGQGTQVTVSSGGGGSGGGGSGGGGSEVQLVESGGGLVKPGGSLRLSCAASGRPVSNYAAAWFRQAPGKEREFVSAINWQKTATYADSVKGRFTISRDNAKNSLYLQMNSLRAEDTAVYYCAAVFRVVAPKTQYDYDYWGQGTLVTVSS
As to B8, the “IC50 (read off the curve)” value in the test with human properdin [1] is about 20 nM.

B9: TPP-2225 (anti-Albumin LVP058 (G4S)3 Linker) (bispecific antibody)
chain: EVQLVESGGGLVKPGGSLRLSCAASGRPVSNYAAAWFRQAPGKEREFVSAINWQKTATYADSVKGRFTISRDNAKNSLYLQMNSLRAEDTAVYYCAAVFRVVAPKTQYDYDYWGQGTLVTVSSGGGGSGGGGSGGGGSLEVQLVESGGGLVQAGGSLRLSCAASGRISSIIHMAWYRQAPGKQRELVAEISRVGTTVYADSVKGRFTISRDDAKNTVTLQMNSLKPEDTAVYYCNALQYEKHGGADYWGQGTQVTVSS
notes: Single chain: anti-albumin VHH, (G4S)3 linker, non-humanized anti-properdin VHH LVP058; also called anti-Alb-LVP058
In the case of B9, the Kd with human properdin [10] was determined as 2.57 nM; with Human Albumin [11], 0.646 nM; with Cynomolgus Albumin [12] it was 2.3 nM; with cynomolgus properdin [4], 1.98 nM; with human properdin [5] it was 0.172 nM; with Human Albumin [13] it was 0.774 nM. Besides, the Kd was found to be 7.07 nM with Cynomolgus Albumin [14] and 0.172 nM with human properdin [6]. Besides, the “IC50 (read off the curve)” value in the test with human properdin [1] is about 10 nM. For the same molecule, the koff in the test with human properdin [6] was 0.000349 s⁻¹. The kon in the test with human properdin [6] came out at 2.03e+06 M⁻¹ s⁻¹.

B10: AB008 (VHH)
VHH: QVQLVESGGGLRQTGESLRLSCTASGRIFEVNMMAWYRQAPGKQRELVAEISRVGTTTYADSVKGRFTISRDSAKNTVTLQMNSLKSEDTAVYYCNALQYDRYGGAEYWGQGTQVTVSG
notes: Llama VHH, cloned and expressed with a 6x histidine tag; also called anti-properdin VHH AB008
In the test with human properdin [2], B10 yielded a Kd of 0.803 nM, a koff of 0.00169 s⁻¹ and a kon of 2.11e+06 M⁻¹ s⁻¹.

B11: AB005 (VHH)
VHH: B10 VHH with L4V, E16G, T58V, G119S
With B11, the “IC50 (read off the curve)” value in the test with human properdin [15] was about 20 nM.

B12: AB006 (VHH)
VHH: B10 VHH with V5A, R12V, T14A, E16D, R19K, Q44D, D101S
Consider B12, for which the “IC50 (read off the curve)” value in the test with human properdin [15] was about 30 nM.
